{"source": "patent US12144864B2", "about": "“Tubulysins and protein-tubulysin conjugates” (Regeneron Pharmaceuticals, Inc., priority 2018, dated 2024)", "molecules": {"B1": {"name": "anti-STEAP2-LP5 (antibody, V domains shown)", "VH": "QVQLVESGGGVVQPGRSLRLSCVASGFTISSYGMNWVRQAPGKGLEWVAVISYDGGNKYSVDSVKGRFTISRDNSKNTLYLQMNSLRAEDSAVYYCARGRYFDLWGRGTLVTVSS", "VL": "DIQMTQSPSTLSASVGDRVTITCRASQSISSWLAWYQQKPGRAPNLLISKASSLKSGVPSRFSGSGSGTEFTLTVSSLQPDDFATYYCQQYYSYSYTFGQGTKLEIK", "modifications": "linker-payload LP5 (DIBAC-suc-PEG4-VA, payload IVd) conjugated; site and DAR of this conjugate not printed (the site-specific procedure uses N297Q, EU numbering, with azido-PEG3-amine on glutamines)"}}, "key": {"C4-2 cells": {"tested_on": "C4-2 cells", "assay": "Cytotoxicity of anti-STEAP2 ADCs, payloads and reference compounds in C4-2 cells", "assay_type": "cell-based, human", "details": "at maximum concentration tested", "description": "To test the ability of the disclosed tubulysin payloads to kill human cell lines, an in vitro cytotoxicity assay was performed. In vitro cytotoxicity of the disclosed payloads, as well as reference compounds, were evaluated using the CellTiter-Glo Assay Kit (Promega, Cat #G7573), in which the quantity of ATP present is used to determine the number of viable cells in culture. For the assay, C4-2, HEK293, or T47D cells were seeded at 4000 cells/well on Nunclon white 96-well plates in complete growth medium (DME high glucose:Ham's F12 at 4:1, 10% FBS, 100 units/ml Penicillin, 100 ug/ml streptomycin, 53 ug/ml glutatmine, 10 ug/ml insulin, 220 ng/ml biotin, 12.5 pg/ml T3, 12.5 ug/ml Adenine, 4 ug/ml transferrin for C42 cells; DME high glucose, 10% FBS, 100 units/ml Penicillin, 100 ug/ml streptomycin, 53 ug/ml glutatmine for HEK293; RPMI, 10% FBS, 100 units/ml Penicillin, 100 ug/ml streptomycin, 53 ug/ml glutatmine, 10 ug/ml insulin, 10 mM HEPEs, 200 nM Sodium Pyruvate for T47D cells) and grown overnight at 37° C. in 5% CO2. For cell viability curves, 1:3 serially diluted payloads were added to the cells at final concentrations ranging from 100 nM to […], including a no treatment control group, and were then incubated for 5 days. After the 5-day incubation, cells were incubated at room temperature with 100 μL of CellTiter-Glo reagents for 10 minutes. Relative luminescence units (RLU) were determined on a Victor plate reader (PerkinElmer). The IC50 values were determined from a four-parameter logistic equation over a 10-point response curve (GraphPad Prism). All IC50 values are expressed in molar (M) concentration. The percent cell killing (% kill) at the maximum concentration tested was estimated from the following formula (100−% viable cells). Averages±standard deviation (SD) are included where replicate experiments were performed.\nTo further test the ability of the disclosed tubulysin payloads, reference compounds, and antibody drug conjugates using these payloads, a cytotoxicity assay was performed using C4-2 cells as described in this example (see above). For these studies, anti-STEAP2 antibodies were conjugated to select tubulysins payloads, and the compounds were tested at concentrations starting at 100 nM with 3-fold serial dilution. All IC50 values are expressed in nM concentration and the percent cell killing at the maximum concentration tested was estimated from the following formula (100−% viable cells)."}, "[1]": {"biological_target": "T1, STEAP2 endogenously expressed on C4-2 prostate cancer cells (human, UniProt Q8NFT2 1-490)", "T1 sequence (looked up)": "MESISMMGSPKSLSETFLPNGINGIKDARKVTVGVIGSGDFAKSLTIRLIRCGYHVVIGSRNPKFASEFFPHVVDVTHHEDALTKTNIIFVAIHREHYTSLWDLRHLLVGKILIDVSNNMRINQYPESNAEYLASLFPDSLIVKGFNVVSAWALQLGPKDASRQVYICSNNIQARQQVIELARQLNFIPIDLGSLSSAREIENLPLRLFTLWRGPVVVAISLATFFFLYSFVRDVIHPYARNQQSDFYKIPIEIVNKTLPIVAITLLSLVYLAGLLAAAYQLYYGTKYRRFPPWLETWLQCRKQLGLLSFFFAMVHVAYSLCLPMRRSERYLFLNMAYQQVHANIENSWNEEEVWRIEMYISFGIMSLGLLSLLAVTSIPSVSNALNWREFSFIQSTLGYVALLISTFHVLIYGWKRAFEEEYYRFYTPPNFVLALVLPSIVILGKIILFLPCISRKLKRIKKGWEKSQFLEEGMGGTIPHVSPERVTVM", "assay": "cell-based or functional assay"}}, "data": [{"molecule": "B1", "values": [{"measurement": "% kill", "setting": "C4-2 cells", "result": 96, "unit": "%"}, {"measurement": "IC50, cytotoxicity in the C4-2 cell based assay (CellTiter-Glo)", "setting": "[1]", "result": 0.28, "unit": "nM"}]}]}
